Test results as given in US20040048377A1 (published 2004).

B1: Nkx6.1 (full-length, rNkx6.1) (other, rat, UniProt O35762 1-365, looked up)
chain: MLAVGAMEGPRQSAFLLSSPPLAALHSMAEMKTPLYPAAYPPLPTGPPSSSSSSSSSSSPSPPLGAHNPGGLKPPAAGGLSSLGSPPQQLSAATPHGINDILSRPSMPVASGAALPSASPSGSSSSSSSSASATSASAAAAAAAAAAAAAASSPAGLLAGLPRFSSLSPPPPPPGLYFSPSAAAVAAVGRYPKPLAELPGRTPIFWPGVMQSPPWRDARLACTPHQGSILLDKDGKRKHTRPTFSGQQIFALEKTFEQTKYLAGPERARLAYSLGMTESQVKVWFQNRRTKWRKKHAAEMATAKKKQDSETERLKGTSENEEDDDDYNKPLDPNSDDEKITQLLKKHKSSGGSLLLHASEAEGSS
notes: mature; Full-length protein made in TNT rabbit reticulocyte lysate; 35S-labelled in the GST co-precipitation, immobilised on antibody-proteinA-sepharose in the immuno-precipitation
B2: mouse Grg4 (other, UniProt Q62441 1-773, looked up)
chain: MIRDLSKMYPQTRHPAPHQPAQPFKFTISESCDRIKEEFQFLQAQYHSLKLECEKLASEKTEMQRHYVMYYEMSYGLNIEMHKQAEIVKRLNAICAQVIPFLSQEHQQQVVQAVERAKQVTMAELNAIIGQQLQAQHLSHGHGLPVPLTPHPSGLQPPAIPPIGSSAGLLALSSALGGQSHLPIKDEKKHHDNDHQRDRDSIKSSSVSPSASFRGSEKHRNSTDYSSESKKQKTEEKEIAARYDSDGEKSDDNLVVDVSNEDPSSPRGSPAHSPRENGLDKTRLLKKDAPISPASVASSSSTPSSKSKELSLNEKSTTPVSKSNTPTPRTDAPTPGSNSTPGLRPVPGKPPGVDPLASSLRTPMAVPCPYPTPFGIVPHAGMNGELTSPGAAYAGLHNISPQMSAAAAAAAAAAAYGRSPVVGFDPHHHMRVPAIPPNLTGIPGGKPAYSFHVSADGQMQPVPFPPDALIGPGIPRHARQINTLNHGEVVCAVTISNPTRHVYTGGKGCVKVWDISHPGNKSPVSQLDCLNRDNYIRSCRLLPDGRTLIVGGEASTLSIWDLAAPTPRIKAELTSSAPACYALAISPDSKVCFSCCSDGNIAVWDLHNQTLVRQFQGHTDGASCIDISNDGTKLWTGGLDNTVRSWDLREGRQLQQHDFTSQIFSLGYCPTGEWLAVGMENSNVEVLHVTKPDKYQLHLHESCVLSLKFAHCGKWFVSTGKDNLLNAWRTPYGASIFQSKESSSVLSCDISVDDKYIVTGSGDKKATVYEVIY
notes: 35S-labelled, made in TNT rabbit reticulocyte lysate for the immuno-precipitation; expressed from a vector in COS-7 cells in the reporter assays; also called mGrg4

Assays:
mouse Grg4 = molecular target: B2; assay: immuno-precipitation, 35S-labelled Grg4, Nkx protein on antibody-proteinA-sepharose
Experimental: (§1) Immuno-precipitation (IP) assays using rabbit Nkx2.2 (Ericson et al., 1997) and Nkx6.1 antibodies (Jensen et al., 1996) were performed as described by Current protocols 2nd ed. ³⁵S-labelled mGrg4 was synthesized using the TNT coupled rabbit reticulocyte lysate. Electric mobility shift assays were performed as described (Jorgensen et al., 1999). Briefly, the isolated homeodomains of Nkx6.1, Nkx6.2, Nkx2.2 and Nkx2.9HD were synthesized using the TNT coupled rabbit reticulocyte lysate and tested for their binding specificity in vitro using ³²P-labelled double stranded DNA oligonucleotides containing defined Nkx6.1 (Jorgensen et al., 1999) or Nkx2.1 binding sites (Damante et al., 1996).
(§2) An immuno-precipitation assay was then used to test if mammalian Gro/TLE family members could also bind to Nkx proteins, and if the TN domain is required for this interaction. […] Carboxy-terminal directed antibodies that recognise both full-length proteins as well as truncated variants lacking the TN domain were used (Ericson et al., 1997; Jensen et al., 1996). […]
(§3) Deletion of the TN domain in Nkx2.2 and Nkx6.1 reduced the interaction with Grg4 (9-fold for Nkx2.2ATN and 5-fold for Nkx6.1ΔTN, compared to the full-length proteins). […] No significant interaction was detected between Grg4 and antibody-proteinA-sepharose complexes.

[1] = molecular target: T1, Nkx2.2ΔTN (Nkx2.2 with the TN domain deleted, Δaa 2-26) (chick); assay: as above
T1 construct: range 1-1;range 27-C-terminus; Deletion construct, immobilised on antibody-proteinA-sepharose in the immuno-precipitation; also called cNkx2.2^?TN; NKx2.2^?TN
Experimental: as §1, §2, §3

| Binder | binding result (mouse Grg4) | fold reduction of the interaction with Grg4 compared to the full-length protein [1] [fold] |
| --- | --- | --- |
| B1 | binds |  |
| B2 |  | 9 |
